Columns and labels:
[1] = target: T1, rVλ6Wil fibrils; test: EuLISA on rVλ6Wil fibrils (FIG. 5A)
T1 construct: domain: λ6 variable domain; Synthetic amyloid-like fibrils; also called rVλWIL; rVλ6Wil synthetic fibrils

[2] = target: T2, Len(1-22) monomer peptide (Homo sapiens (Human), UniProt P06312 21-42); test: SPR, antibody as ligand, peptide as analyte
T2 construct: Analyte in SPR; on beads in the pulldown assay; also called Vκ4(LEN(1-22) beads)
T2 peptide: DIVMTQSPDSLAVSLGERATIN

[3] = target: T3, TAL ALκ liver extract; test: pulldown assay
T3 construct: Human AL amyloid extract; also called ALκ (TAL); ALκ TAL

[4] = target: Per253 wild type (wt) ATTR extract (human, UniProt P02766 21-147); test: pulldown assay
[5] = target: T4, TYL ALλ extract; test: pulldown assay
T4 construct: Human AL amyloid extract; also called ALλ TYL extract

[6] = target: T5, Per125 wtATTR extract (human, UniProt P02766 21-147); test: pulldown assay
[7] = target: T1, rVλ6Wil fibrils; test: pulldown assay
[8] = target: T6, KEN hATTR extract (human, UniProt P02766 21-147); test: pulldown assay
[9] = target: SNO hATTR extract (human, UniProt P02766 21-147); test: pulldown assay
[10] = target: T7, HIG ALκ1 extract; test: pulldown assay
T7 construct: Human AL amyloid extract; also called ALκ HIG extract

[11] = target: T8, SHI ALλ liver extract; test: pulldown assay
T8 construct: Human AL amyloid extract; also called ALλ (SHI); ALλ SHI extract

[12] = target: T9, CAB ALκ4; test: pulldown assay
T9 construct: AL amyloid substrate of the pulldown assay

[13] = target: T1, rVλ6Wil fibrils; test: EuLISA on rVλ6Wil fibrils; plot with two y axes
[14] = target: T3, TAL ALκ liver extract; test: EuLISA
[15] = target: T5, Per125 wtATTR extract; test: EuLISA
[16] = target: T1, rVλ6Wil fibrils; test: EuLISA
[17] = target: T8, SHI ALλ liver extract; test: EuLISA
[18] = target: T1, rVλ6Wil fibrils; test: EuLISA on rVλ6Wil fibrils (FIG. 5B)
[19] = target: T3, TAL ALκ liver extract; test: plate assay, time-resolved fluorescence (anti-human Fc, streptavidin-europium), 4PL fit
Method: (§1) The antibody-peptide conjugate was added to the wells in 2-fold serial dilution starting at 100 nM. For wells containing rVλ6WIL, the antibody-peptide conjugate was added to the wells in 2-fold serial dilution starting at 5 nM.

[20] = target: T5, Per125 wtATTR extract; test: as above
Method: as §1

[21] = target: T1, rVλ6Wil fibrils; test: as above
Method: as §1

[22] = target: T6, KEN hATTR extract; test: as above
Method: as §1

[23] = target: T10, ALλ (BAL) amyloid extract; test: as above
T10 construct: Human AL amyloid extract; also called human AL (BAL) amyloid extract
Method: as §1

[24] = target: T11, ALλ (GRA) amyloid extract; test: as above
T11 construct: also called ALκ(GRA) amyloid extract
Method: as §1

[25] = target: T8, SHI ALλ liver extract; test: as above
Method: as §1

[26] = target: Tau 441 synthetic amyloid-like fibrils (UniProt P10636-8 1-441); test: as above
Method: (§2) The mean and standard deviation (SD) of three replicates were calculated and the potency (EC50) was determined following fitting with a sigmoidal four parameter logistic (4PL) equation with logarithmic x-axis (Prism) (FIG. 14). A non-reactive hIgG1 was used as a negative control in a parallel assay (FIG. 13B).

[27] = target: α-synuclein synthetic amyloid-like fibrils (UniProt P37840 1-140); test: as above
Method: as §2

Chain of Tau 441 synthetic amyloid-like fibrils (P10636 other isoform, or with tags, fused parts or gaps limits assumed): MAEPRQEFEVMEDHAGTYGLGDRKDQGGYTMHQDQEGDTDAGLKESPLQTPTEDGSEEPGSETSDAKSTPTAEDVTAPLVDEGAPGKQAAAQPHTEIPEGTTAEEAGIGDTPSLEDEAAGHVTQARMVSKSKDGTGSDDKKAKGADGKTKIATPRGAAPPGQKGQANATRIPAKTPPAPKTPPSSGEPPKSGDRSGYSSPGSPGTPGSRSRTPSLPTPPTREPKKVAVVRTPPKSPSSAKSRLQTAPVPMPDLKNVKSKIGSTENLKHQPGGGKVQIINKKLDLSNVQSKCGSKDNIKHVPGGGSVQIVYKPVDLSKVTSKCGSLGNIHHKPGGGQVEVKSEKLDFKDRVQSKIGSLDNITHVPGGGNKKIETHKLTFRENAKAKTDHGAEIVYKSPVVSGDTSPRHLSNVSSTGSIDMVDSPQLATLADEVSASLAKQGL

B1: VH9/VL4 (antibody, V domains shown)
VH: QVQLQESGPGLVKPSETLSLTCTVSGFSLSSYGVSWIRQPPGKGLEWLGVIWGDGSTNYHPNLMSRVTISVDTSKSQVLFKLSSVTAADTAVYYCATLDYWGQGTSVTVSS
VL: DVVMTQSPLSLPVTLGQPASISCRSSQSLVHRNGNTYLHWFQQRPGQSPRLLIYKVSNRFSGVPDRFSGSGSGTDFTLKISRVEAEDVGVYFCFQTTYVPNTFGGGTKLEIK
notes: Humanized 11-1F4; also called VH9/VL4 parent
Q: Which EC50 [1] does the source give for B1 here?
A: Its EC50 is 7 nM.

Q: What about the Kd [2] of the same binder?
A: The Kd was 43 nM.

Q: And the koff [2]?
A: Its koff is 0.0026 s⁻¹.

Q: And the kon [2]?
A: The kon was 60400 M⁻¹ s⁻¹.

Q: What about the percent bound [3] of the same binder?
A: The percent bound was 0.72%.

Q: And the percent bound [4]?
A: Its percent bound is 0.8%.

Q: And the percent bound [5]?
A: Its percent bound is 0.56%.

Q: What about the percent bound [6] of the same binder?
A: Its percent bound is 1.36%.

Q: And the percent bound [7]?
A: The percent bound was 10.4%.

Q: And the percent bound [8]?
A: The percent bound was 0.61%.

Q: What about the percent bound [9] of the same binder?
A: Its percent bound is 0.41%.

Q: What about the percent bound [10] of the same binder?
A: Its percent bound is 0.19%.

Q: What about the percent bound [11] of the same binder?
A: Its percent bound is 0.68%.

Q: And the percent bound [12]?
A: Its percent bound is 2.43%.

Q: And the “EC50 (read off the curve)” value [13]?
A: Its value is about 7 nM.

B2: chimeric antibody c11-1F4 (antibody, V domains shown)
VH: QVQLKESGPGLVAPSQSLSITCTVSGFSLSSYGVSWVRQPPGKGLEWLGVIWGDGSTNYHPNLMSRLSISKDISKSQVLFKLNSLQTDDTATYYCVTLDYWGQGTSVTVSS
VL: DVVMTQTPLSLPVSLGDQASISCRSSQSLVHRNGNTYLHWYLQKPGQSPKLLIYKVSNRFSGVPDRFSGSGSGTDFTLKISRVEAEDLGLYFCFQTTYVPNTFGGGTKLEIK
notes: Chimeric form of 11-1F4; also called ch11-1F4; chimeric (c) 11-1F4
Q: Which LogEC50 [14] does the source give for B2 here?
A: The LogEC50 was ~0.599 -log(M).

Q: And the Max [14]?
A: Its Max is about 17800.

Q: And the EC50 [15]?
A: The EC50 was 381 nM.

Q: And the LogEC50 [15]?
A: Its LogEC50 is 6.42 -log(M).

Q: And the Max [15]?
A: The Max was 71.1.

Q: And the EC50 [16]?
A: Its EC50 is 291 nM.

Q: And the LogEC50 [16]?
A: The LogEC50 was 6.54 -log(M).

Q: What about the Max [16] of the same binder?
A: Its Max is 63.9.

Q: And the EC50 [17]?
A: Its EC50 is 256 nM.

Q: And the LogEC50 [17]?
A: The LogEC50 was 6.59 -log(M).

Q: And the Max [17]?
A: Its Max is 51.3.

Q: And the EC50 [1]?
A: Its EC50 is about 72 nM.

Q: And the EC50 [18]?
A: The EC50 was about 100 nM.

B3: PF.1 (VH9-D54E/VL4-N33S-p5R with VSPSV spacer, perfusion 1) (antibody, human IgG1, kappa)
heavy: not shown
light: DVVMTQSPLSLPVTLGQPASISCRSSQSLVHRSGNTYLHWFQQRPGQSPRLLIYKVSNRFSGVPDRFSGSGSGTDFTLKISRVEAEDVGVYFCFQTTYVPNTFGGGTKLEIKRTVAAPSVFIFPPSDEQLKSGTASVVCLLNNFYPREAKVQWKVDNALQSGNSQESVTEQDSKDSTYSLSSTLTLSKADYEKHKVYACEVTHQGLSSPVTKSFNRGECVSPSVRAQRAQARQARQAQRAQRAQARQARQ
notes: Antibody-peptide fusion, p5R on the light chain through VSPSV; perfusion culture 1 day, cation exchange, over 99% intact; also called VH9-D54E/VL4-N33S-VSPSV-p5R
Q: Which EC50 [19] does the source give for B3 here?
A: Its EC50 is 0.4 nM.

Q: And the EC50 [20]?
A: Its EC50 is 0.18 nM.

Q: What about the EC50 [21] of the same binder?
A: Its EC50 is 0.15 nM.

Q: And the EC50 [22]?
A: The EC50 was 0.45 nM.

Q: What about the EC50 [23] of the same binder?
A: The EC50 was 0.36 nM.

Q: What about the EC50 [24] of the same binder?
A: Its EC50 is 0.6 nM.

Q: What about the EC50 [25] of the same binder?
A: Its EC50 is 0.32 nM.

B4: PF.7 (VH9-D54E/VL4-N33S-VSPSV-p5R collected after 7 days of perfusion culturing) (antibody, human IgG1, kappa)
heavy: not shown
light: DVVMTQSPLSLPVTLGQPASISCRSSQSLVHRSGNTYLHWFQQRPGQSPRLLIYKVSNRFSGVPDRFSGSGSGTDFTLKISRVEAEDVGVYFCFQTTYVPNTFGGGTKLEIKRTVAAPSVFIFPPSDEQLKSGTASVVCLLNNFYPREAKVQWKVDNALQSGNSQESVTEQDSKDSTYSLSSTLTLSKADYEKHKVYACEVTHQGLSSPVTKSFNRGECVSPSVRAQRAQARQARQAQRAQRAQARQARQ
notes: Same construct as PF.1, perfusion culture for 7 days
Q: B4 was tested. Which EC50 [26] did it give?
A: The EC50 was 1300 nM.

Q: What about the EC50 [27] of the same binder?
A: The EC50 was 127 nM.

— patent publication US20230416347A1 (UNIVERSITY OF TENNESSEE RESEARCH FOUNDATION, published 2023)
